# B1: RHOBTB2 (parent)
# chain: LYTGELDENERDLMHIAHIAELLE
# Variants of: B1
# Assay: protein stability index of a GFP-peptide fusion (GPS, HEK-293T) (PSI 1-6); higher = more stable
# Conditions: c terminus: a fixed tail appended
# 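Note: lentivirally expressed fusions sorted by FACS into six bins by GFP to DsRed ratio, PSI derived from sequencing read proportions per bin multiplied by bin number.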
row,Variant,protein stability index
1,LYTGELDENERDLMHCAHIAELLE,3.77
2,LYTGELDENERDLMHNAHIAELLE,3.54
3,LYTGELDENERDLMHRAHIAELLE,4.43
4,LYTGELDENERDLMHQAHIAELLE,3.87
5,LYTGELDENERDLMHKAHIAELLE,4.05
6,LYTGELDENERDLMHLAHIAELLE,2.09
7,LYTGELDENERDLMHEAHIAELLE,4.85
8,LYTGELDENERDLMHAAHIAELLE,4.07
9,LYTGELDENERDLMHWAHIAELLE,3.16
10,LYTGELDENERDLMHVAHIAELLE,2.76
11,LYTGELDENERDLMHTAHIAELLE,3.62
12,LYTGELDENERDLMHGAHIAELLE,4.06
13,LYTGELDENERDLMHHAHIAELLE,3.76
14,LYTGELDENERDLMHFAHIAELLE,2.71
15,LYTGELDENERDLMHMAHIAELLE,2.51
16,LYTGELDENERDLMHDAHIAELLE,4.12
17,LYTGELDENERDLMHSAHIAELLE,3.9
18,LYTGELDENERDLMHPAHIAELLE,4.15
19,LYTGELDENERDLMHYAHIAELLE,2.93
20,LYTGELDMNERDLMHIAHIAELLE,1.78
21,LYTGELDTNERDLMHIAHIAELLE,2.4
22,LYTGELDLNERDLMHIAHIAELLE,1.57
23,LYTGELDYNERDLMHIAHIAELLE,2.23
24,LYTGELDKNERDLMHIAHIAELLE,2.28

row,Variant,protein stability index
1,LYTGELDNNERDLMHIAHIAELLE,2.21
2,LYTGELDRNERDLMHIAHIAELLE,2.46
3,LYTGELDQNERDLMHIAHIAELLE,2.85
4,LYTGELDPNERDLMHIAHIAELLE,2.15
5,LYTGELDSNERDLMHIAHIAELLE,2.29
6,LYTGELDVNERDLMHIAHIAELLE,2.9
7,LYTGELDINERDLMHIAHIAELLE,1.62
8,LYTGELDWNERDLMHIAHIAELLE,2.88
9,LYTGELDENERDKMHIAHIAELLE,3.1
10,LYTGELDENERDSMHIAHIAELLE,3.12
11,LYTGELDENERDPMHIAHIAELLE,4.82
12,LYTGELDENERDAMHIAHIAELLE,3.08
13,LYTGELDENERDDMHIAHIAELLE,3.12
14,LYTGELDENERDQMHIAHIAELLE,3.29
15,LYTGELDENERDNMHIAHIAELLE,3.28
16,LYTGELDENERDRMHIAHIAELLE,3.06
17,LYTGELDENERDGMHIAHIAELLE,3.74
18,LYTGELDENERDFMHIAHIAELLE,3.13
19,LYTGELDENERDYMHIAHIAELLE,2.59
20,LYTGELDENERDVMHIAHIAELLE,3.22
21,LYTGELDENERDCMHIAHIAELLE,3.45
22,LYTGELDENERDEMHIAHIAELLE,3.44
23,LYTGELDENERDWMHIAHIAELLE,2.65
24,LYTGELDENERDMMHIAHIAELLE,2.92

row,Variant,protein stability index
1,LYTGELDENERDIMHIAHIAELLE,2.38
2,LYTGELDENERDHMHIAHIAELLE,3.58
3,LYTGELDENERDTMHIAHIAELLE,3.34
4,LYTGELDETERDLMHIAHIAELLE,2.71
5,LYTGELDEMERDLMHIAHIAELLE,1.86
6,LYTGELDEYERDLMHIAHIAELLE,1.64
7,LYTGELDEDERDLMHIAHIAELLE,2.59
8,LYTGELDEPERDLMHIAHIAELLE,2.03
9,LYTGELDECERDLMHIAHIAELLE,1.85
10,LYTGELDEHERDLMHIAHIAELLE,2.54
11,LYTGELDESERDLMHIAHIAELLE,2.19
12,LYTGELDEGERDLMHIAHIAELLE,2.82
13,LYTGELDELERDLMHIAHIAELLE,1.51
14,LYTGELDEVERDLMHIAHIAELLE,1.89
15,LYTGELDEAERDLMHIAHIAELLE,2.57
16,LYTGELDEQERDLMHIAHIAELLE,2.25
17,LYTGELDERERDLMHIAHIAELLE,2.79
18,LYTGELDEEERDLMHIAHIAELLE,3.15
19,LYTGELDEKERDLMHIAHIAELLE,2.68
20,LYTGELDEIERDLMHIAHIAELLE,3.37
21,LYTGELDEFERDLMHIAHIAELLE,1.34
22,LYTGELDENERDLMHIYHIAELLE,1.93
23,LYTGELDENERDLMHITHIAELLE,1.82
24,LYTGELDENERDLMHIHHIAELLE,3.58

row,Variant,protein stability index
1,LYTGELDENERDLMHIDHIAELLE,3.28
2,LYTGELDENERDLMHIQHIAELLE,2.95
3,LYTGELDENERDLMHICHIAELLE,1.77
4,LYTGELDENERDLMHIMHIAELLE,1.41
5,LYTGELDENERDLMHIWHIAELLE,1.87
6,LYTGELDENERDLMHIEHIAELLE,2.17
7,LYTGELDENERDLMHIGHIAELLE,2.77
8,LYTGELDENERDLMHIKHIAELLE,2.72
9,LYTGELDENERDLMHIIHIAELLE,2.1
10,LYTGELDENERDLMHIVHIAELLE,1.66
11,LYTGELDENERDLMHINHIAELLE,2.92
12,LYTGELDENERDLMHISHIAELLE,3.02
13,LYTGELDENERDLMHILHIAELLE,1.45
14,LYTGELDENERDLMHIFHIAELLE,2.38
15,LYTGELDENERDLMHIRHIAELLE,2.7
16,LYTGELDENERDLMHIPHIAELLE,3.85
17,LYTGELDENERDLFHIAHIAELLE,2.54
18,LYTGELDENERDLLHIAHIAELLE,2.58
19,LYTGELDENERDLHHIAHIAELLE,3.1
20,LYTGELDENERDLCHIAHIAELLE,2.45
21,LYTGELDENERDLGHIAHIAELLE,3.36
22,LYTGELDENERDLDHIAHIAELLE,3.41
23,LYTGELDENERDLPHIAHIAELLE,3.48
24,LYTGELDENERDLKHIAHIAELLE,2.89

row,Variant,protein stability index
1,LYTGELDENERDLWHIAHIAELLE,1.82
2,LYTGELDENERDLTHIAHIAELLE,3.04
3,LYTGELDENERDLAHIAHIAELLE,2.39
4,LYTGELDENERDLQHIAHIAELLE,2.39
5,LYTGELDENERDLIHIAHIAELLE,2.84
6,LYTGELDENERDLSHIAHIAELLE,3.8
7,LYTGELDENERDLYHIAHIAELLE,2.01
8,LYTGELDENERDLRHIAHIAELLE,2.36
9,LYTGELDENERDLVHIAHIAELLE,2.16
10,LYTGELDENERDLNHIAHIAELLE,3.52
11,LYTGELDENERSLMHIAHIAELLE,2.56
12,LYTGELDENERILMHIAHIAELLE,3.03
13,LYTGELDENERGLMHIAHIAELLE,2.74
14,LYTGELDENERLLMHIAHIAELLE,3.07
15,LYTGELDENERNLMHIAHIAELLE,3.12
16,LYTGELDENERALMHIAHIAELLE,2.01
17,LYTGELDENERHLMHIAHIAELLE,3.13
18,LYTGELDENERYLMHIAHIAELLE,1.66
19,LYTGELDENERVLMHIAHIAELLE,2.96
20,LYTGELDENERTLMHIAHIAELLE,2.43
21,LYTGELDENERCLMHIAHIAELLE,2.53
22,LYTGELDENERFLMHIAHIAELLE,2.78
23,LYTGELDENERPLMHIAHIAELLE,2.43
24,LYTGELDENERELMHIAHIAELLE,2.47

row,Variant,protein stability index
1,LYTGELDENERKLMHIAHIAELLE,3.02
2,LYTGELDENERQLMHIAHIAELLE,2.4
3,LYTGELDENERWLMHIAHIAELLE,2.49
4,LYTGELDENERMLMHIAHIAELLE,2.95
5,LYTGELDENEHDLMHIAHIAELLE,2.39
6,LYTGELDENENDLMHIAHIAELLE,2.1
7,LYTGELDENEKDLMHIAHIAELLE,2.77
8,LYTGELDENEPDLMHIAHIAELLE,2.67
9,LYTGELDENEVDLMHIAHIAELLE,2.04
10,LYTGELDENEFDLMHIAHIAELLE,1.83
11,LYTGELDENEDDLMHIAHIAELLE,2.9
12,LYTGELDENEADLMHIAHIAELLE,2.27
13,LYTGELDENEQDLMHIAHIAELLE,1.96
14,LYTGELDENEGDLMHIAHIAELLE,3.32
15,LYTGELDENECDLMHIAHIAELLE,2.66
16,LYTGELDENEEDLMHIAHIAELLE,2.44
17,LYTGELDENEIDLMHIAHIAELLE,2.57
18,LYTGELDENELDLMHIAHIAELLE,1.77
19,LYTGELDENETDLMHIAHIAELLE,2.14
20,LYTGELDENESDLMHIAHIAELLE,2.5
21,LYTGELDENEYDLMHIAHIAELLE,2.42
22,LYTGELDENEMDLMHIAHIAELLE,1.96
23,LYTGELDENEWDLMHIAHIAELLE,2.04
24,LYTGELDENERDLMMIAHIAELLE,1.86

row,Variant,protein stability index
1,LYTGELDENERDLMCIAHIAELLE,2.13
2,LYTGELDENERDLMRIAHIAELLE,2.42
3,LYTGELDENERDLMNIAHIAELLE,2.63
4,LYTGELDENERDLMYIAHIAELLE,1.67
5,LYTGELDENERDLMLIAHIAELLE,1.5
6,LYTGELDENERDLMDIAHIAELLE,3.36
7,LYTGELDENERDLMQIAHIAELLE,2.4
8,LYTGELDENERDLMKIAHIAELLE,2.21
9,LYTGELDENERDLMTIAHIAELLE,1.53
10,LYTGELDENERDLMWIAHIAELLE,2.47
11,LYTGELDENERDLMVIAHIAELLE,1.62
12,LYTGELDENERDLMPIAHIAELLE,3.23
13,LYTGELDENERDLMGIAHIAELLE,2.78
14,LYTGELDENERDLMAIAHIAELLE,1.74
15,LYTGELDENERDLMFIAHIAELLE,2.46
16,LYTGELDENERDLMSIAHIAELLE,2.54
17,LYTGELDENERDLMIIAHIAELLE,1.93
18,LYTGELDENERDLMEIAHIAELLE,2.76
19,LYTGELDENDRDLMHIAHIAELLE,2.87
20,LYTGELDENFRDLMHIAHIAELLE,2.53
21,LYTGELDENRRDLMHIAHIAELLE,2.58
22,LYTGELDENGRDLMHIAHIAELLE,2.02
23,LYTGELDENPRDLMHIAHIAELLE,1.88
24,LYTGELDENMRDLMHIAHIAELLE,1.68

row,Variant,protein stability index
1,LYTGELDENHRDLMHIAHIAELLE,2.05
2,LYTGELDENTRDLMHIAHIAELLE,2.66
3,LYTGELDENLRDLMHIAHIAELLE,2.24
4,LYTGELDENKRDLMHIAHIAELLE,1.94
5,LYTGELDENVRDLMHIAHIAELLE,1.89
6,LYTGELDENNRDLMHIAHIAELLE,2.83
7,LYTGELDENCRDLMHIAHIAELLE,2.6
8,LYTGELDENWRDLMHIAHIAELLE,2.41
9,LYTGELDENSRDLMHIAHIAELLE,1.98
10,LYTGELDENYRDLMHIAHIAELLE,1.95
11,LYTGELDENQRDLMHIAHIAELLE,2.61
12,LYTGELDENIRDLMHIAHIAELLE,2.26
13,LYTGELDENARDLMHIAHIAELLE,2.58
14,LYTGELDENERDLMHIAFIAELLE,1.72
15,LYTGELDENERDLMHIAAIAELLE,1.65
16,LYTGELDENERDLMHIAGIAELLE,3.76
17,LYTGELDENERDLMHIADIAELLE,2.87
18,LYTGELDENERDLMHIAIIAELLE,2.65
19,LYTGELDENERDLMHIAEIAELLE,3.32
20,LYTGELDENERDLMHIACIAELLE,2.41

# Reference: the supplement of paper PMC10567573
